Laboratory results published in patent US20210122788A1.

What was measured:
[1] = target: human BTLA Fc (human) (UniProt Q7Z6A9); experiment: SPR, BTLA Fc immobilised on CM5, monovalent (Langmuir) fit
[2] = target: human BTLA Fc (human) (UniProt Q7Z6A9); experiment: SPR, BTLA Fc immobilised on CM5, bivalent fit

**Q.** Which Kd [1] does the source give for rhesus CMV UL144 Fc (Fc fusion) here?
**A.** The Kd was 1.3 µM.

**Q.** What about the koff [1] of the same substance?
**A.** Its koff is 0.0295 s⁻¹.

**Q.** What about the kon [1] of the same substance?
**A.** The kon was 22800 M⁻¹ s⁻¹.

**Q.** What about the ka1 (bivalent analysis) [2] of the same substance?
**A.** The ka1 (bivalent analysis) was 16600 M⁻¹ s⁻¹.

**Q.** And the kd1 (bivalent analysis) [2]?
**A.** The kd1 (bivalent analysis) was 0.031 s⁻¹.

**Q.** What about the kd2 (bivalent analysis) [2] of the same substance?
**A.** Its kd2 (bivalent analysis) is 0.129 s⁻¹.
